What was measured:
[1] = molecular target: T1, human PVRIG (Poliovirus Receptor Related Immunoglobulin Domain Containing Protein) (human, UniProt Q6DKI7 41-326); assay: FACS on Jurkat cells after PVRIG siRNA knock down
T1 construct: whole, on cells; on HEK293 over-expressing cells (some pools flag-tagged), Jurkat, CA46 or primary T cells; also called hPVRIG; C7orf15
T1 sequence (looked up): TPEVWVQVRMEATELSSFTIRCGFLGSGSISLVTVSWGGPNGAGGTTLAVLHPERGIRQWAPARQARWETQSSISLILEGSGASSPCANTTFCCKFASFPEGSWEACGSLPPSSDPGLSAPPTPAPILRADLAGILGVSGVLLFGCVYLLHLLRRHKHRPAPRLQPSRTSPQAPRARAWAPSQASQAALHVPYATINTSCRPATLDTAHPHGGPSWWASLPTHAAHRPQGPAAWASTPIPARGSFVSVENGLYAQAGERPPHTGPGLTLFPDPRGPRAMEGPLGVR

[2] = molecular target: T1, human PVRIG (Poliovirus Receptor …); assay: FACS on Jurkat cells transfected with scrambled siRNA
[3] = molecular target: T1, human PVRIG (Poliovirus Receptor …); assay: flow cytometry equilibrium titration on HEK 293 cells expressing human PVRIG, 1:1 fit
[4] = molecular target: T2, mouse PVRIG on HEK293 over-expressing cells (mouse); assay: FACS, 60 µg/ml on HEK293 OX mouse PVRIG; one of two sources
T2 construct: whole, on cells; also called HEK293 OX mouse PVRIG; mouse PVRIG-FLAG

B1: CPA.7.021 IgG conjugated with Alexa 647 (antibody, V domains shown)
VH: EVQLVESGGGVVKPGGSLRLSCAASGFTFGTSSMNWVRQAPGKGLEWVAVISFDGTEIHYADSVKGRFTISRDNSKSTVFLQMNSLRPDDTALYYCAKGSGNIYFYSGMDVWGQGTTVTVSS
VL: DIQMTQSPSTLSASVGDRVTITCRAGQSISGWLAWFQQKPGKAPNLLIYETSTLESGVPSRFSGSGSGTEYTLTISSLQPDDFATYYCQQYYSYPLTFGQGTKVEIK
fold change (anti PVRIG vs isotype control) [1]: 2.8 fold | fold change (anti PVRIG vs isotype control) [2]: 15.3 fold | Kd [3]: 2.5 nM

B2: mouse PVRL2-his (ligand, UniProt P32507 32-351, looked up)
chain: QDVRVRVLPEVRGRLGGTVELPCHLLPPTTERVSQVTWQRLDGTVVAAFHPSFGVDFPNSQFSKDRLSFVRARPETNADLRDATLAFRGLRVEDEGNYTCEFATFPNGTRRGVTWLRVIAQPENHAEAQEVTIGPQSVAVARCVSTGGRPPARITWISSLGGEAKDTQEPGIQAGTVTIISRYSLVPVGRADGVKVTCRVEHESFEEPILLPVTLSVRYPPEVSISGYDDNWYLGRSEAILTCDVRSNPEPTDYDWSTTSGVFPASAVAQGSQLLVHSVDRMVNTTFICTATNAVGTGRAEQVILVRESPSTAGAGATGG
notes: also called His-tagged PVRL2; his-tagged mouse PVLR2
fold binding vs empty vector cells [4]: 2 fold
